In publication PMC7711741 one finds Ki and Kd data, which are given here for ten substances.

Read-outs that look alike come from different tables or passages of the source. Some results are limits rather than exact numbers.

In experiment [1] the target is mupain-1 (synthetic construct).
Experiment [2] has as its target mupain-1 (synthetic construct). To be noted: cited from earlier work.
Experiment [3] concerns the target mupain-1 (synthetic construct). To be noted: cited from earlier work. This is another data set of the same source.
The target in experiment [4] is urokinase-type plasminogen activator (muPA) (Mus musculus) (UniProt P06869). To be noted: cited from earlier work.
Experiment [5] deals with mupain-1 (synthetic construct). Nature of the experiment: SPR. In general terms: SPR reads the build-up and loss of mass on a sensor chip optically.
The target of experiment [6] is mupain-1 (synthetic construct). This is another data set of the same source.
In experiment [7] the target is mupain-1 (synthetic construct). The source holds these as a separate data set.
Experiment [8] addresses mupain-1 (synthetic construct). To be noted: cited from earlier work. The source holds these as a separate data set.
Experiment [9] deals with mupain-1 (synthetic construct). The note with it: cited from earlier work. This is another data set of the same source.
The target of experiment [10] is mupain-1 (synthetic construct). The note with it: cited from earlier work. This is another data set of the same source.
Experiment [11] addresses mupain-1 (synthetic construct). The note with it: cited from earlier work. This is another data set of the same source.

Sequence of plasma kallikrein, P03952 (P03952 391-638): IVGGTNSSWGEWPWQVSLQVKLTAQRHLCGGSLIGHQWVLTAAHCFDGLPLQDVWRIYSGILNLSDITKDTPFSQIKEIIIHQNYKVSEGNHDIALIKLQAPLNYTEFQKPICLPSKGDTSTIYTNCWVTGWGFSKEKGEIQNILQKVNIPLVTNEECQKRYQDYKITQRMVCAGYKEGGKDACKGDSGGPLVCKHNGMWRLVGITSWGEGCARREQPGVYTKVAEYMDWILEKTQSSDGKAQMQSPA
Sequence of beta-trypsin (P00760 24-246): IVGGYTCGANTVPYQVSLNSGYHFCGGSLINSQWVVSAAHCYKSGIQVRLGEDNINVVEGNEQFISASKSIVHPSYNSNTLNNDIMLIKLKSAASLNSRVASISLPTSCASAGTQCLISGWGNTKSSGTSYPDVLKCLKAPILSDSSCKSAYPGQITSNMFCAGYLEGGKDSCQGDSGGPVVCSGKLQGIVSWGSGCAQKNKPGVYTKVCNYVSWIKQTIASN
Sequence of urokinase-type plasminogen activator (P06869 157-178): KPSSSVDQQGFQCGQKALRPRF
Sequence of plasmin (from UniProt P20918) (P20918 582-812): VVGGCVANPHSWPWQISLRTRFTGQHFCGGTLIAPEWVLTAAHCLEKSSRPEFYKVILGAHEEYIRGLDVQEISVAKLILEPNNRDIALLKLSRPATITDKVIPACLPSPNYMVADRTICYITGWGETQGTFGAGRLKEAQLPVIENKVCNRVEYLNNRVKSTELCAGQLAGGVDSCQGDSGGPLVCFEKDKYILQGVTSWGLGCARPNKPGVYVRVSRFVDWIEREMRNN
Sequence of factor XIa catalytic domain (P03951 388-625): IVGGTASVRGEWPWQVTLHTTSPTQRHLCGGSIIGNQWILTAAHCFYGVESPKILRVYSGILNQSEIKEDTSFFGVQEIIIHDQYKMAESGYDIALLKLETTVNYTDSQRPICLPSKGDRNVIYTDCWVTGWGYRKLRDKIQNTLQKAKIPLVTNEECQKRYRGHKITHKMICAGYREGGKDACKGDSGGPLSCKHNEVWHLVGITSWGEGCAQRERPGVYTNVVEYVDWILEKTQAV
Sequence of plasma kallikrein, P26262 (P26262 391-638): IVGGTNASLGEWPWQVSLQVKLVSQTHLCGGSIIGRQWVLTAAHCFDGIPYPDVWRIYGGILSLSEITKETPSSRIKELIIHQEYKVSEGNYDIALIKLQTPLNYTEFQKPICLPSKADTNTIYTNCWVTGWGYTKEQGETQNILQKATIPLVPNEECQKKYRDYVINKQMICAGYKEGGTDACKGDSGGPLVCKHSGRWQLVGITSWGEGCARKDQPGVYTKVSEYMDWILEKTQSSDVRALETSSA
Sequence of urokinase-type plasminogen activator (muPA) (Mus musculus) (P06869 180-433): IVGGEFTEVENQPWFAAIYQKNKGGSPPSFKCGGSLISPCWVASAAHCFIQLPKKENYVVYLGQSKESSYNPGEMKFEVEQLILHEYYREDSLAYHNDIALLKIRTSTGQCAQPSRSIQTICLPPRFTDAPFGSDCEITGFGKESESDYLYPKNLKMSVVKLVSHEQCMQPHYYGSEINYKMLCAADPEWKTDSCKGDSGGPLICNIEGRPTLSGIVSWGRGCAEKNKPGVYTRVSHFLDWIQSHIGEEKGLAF
Sequence of plasmin (from UniProt P00747) (P00747 581-810): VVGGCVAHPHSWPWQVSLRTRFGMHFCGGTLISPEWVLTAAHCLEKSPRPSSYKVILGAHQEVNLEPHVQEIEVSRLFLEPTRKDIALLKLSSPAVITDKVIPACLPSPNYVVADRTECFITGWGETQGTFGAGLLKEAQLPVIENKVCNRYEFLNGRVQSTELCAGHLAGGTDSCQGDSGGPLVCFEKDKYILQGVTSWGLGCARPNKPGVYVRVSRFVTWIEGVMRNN

On to KLK1, P06870, for which the Ki (usually the equilibrium dissociation constant of an inhibitor or competing ligand from its target) in [1] is above 1000 µM.
In the case of beta-trypsin (from UniProt P00760), the Ki in experiment [2] is 20.7 µM.
Take “factor XIa catalytic domain (from UniProt P03951)”: in experiment [3], the Ki was above 1000 µM.
Turning to mupain-1, the Ki in [4] is 0.55 µM.
Turning to plasma kallikrein, P03952, the Kd (in general, the concentration at which binding is half-saturated) in [5] is above 1000 µM. Also, the Ki in experiment [6] was above 1000 µM.
As for plasma kallikrein, P26262, the Ki in experiment [7] was above 1000 µM.
Take plasmin (from UniProt P00747): in [8], the Ki is above 1000 µM.
plasmin (from UniProt P20918): the Ki in [9] was above 1000 µM.
With “urokinase-type plasminogen activator (from UniProt P00749)”, the Ki in experiment [10] was above 1000 µM.
Consider “urokinase-type plasminogen activator (from UniProt P06869)”, for which the Ki in experiment [11] is 0.55 µM.
